According to the DeepSol protein solubility set:

Assay: soluble on expression in E. coli; label from the status in PepcDB or PDB records
With “MAHHHHHHMDHQDLKPVIWHKTEKKTKPKDIHEARKLGIDVEVEKKYFGGKNKSSKGNLIIENKAKIEQETENFKIDRVTPAFSRALQQARISKKLTQAQLARLVNESESVIKEYENGKAIPNNVIIQKLNKVLGVNLPSPKKK” the “soluble on expression in E. coli” value was “soluble”. For “MSLDISKKSLLTPAEAAKLLHVAPTTIRHWAQIGRLPFISTPGGHRRFDRNDILSLMSTPKINVKNDFSILIIEDDKEFADMLTQFLENLFPYAKIKIAYNPFDAGDLLHTVKPDVVMLDLMMVGMDGFSICHRIKSTPATANIIVIAMTGALTDDNVSRIVALGAETCFGKPLNFTLLEKTIKQLVEQKKATSEGHHHHHH”, the “soluble on expression in E. coli” value was “soluble”. In the case of “ADKAASGVLTKLPQKQIQEMKEAFSMIDVDRDGFVSKEDIKAISEQLGRAPDDKELTAMLKEAPGPLNFTMFLSIFSDKLSGTDSEETIRNAFAMFDEQETKKLNIEYIKDLLENMGDNFNKDEMRMTFKEAPVEGGKFDYVKFTAMIKGSGEEEA”, the “soluble on expression in E. coli” value is reported as “soluble”. With “SNKGGGSGGGSGGGSGPTAAAAAAALQKQKALLQRVETDITSVVDNFTQIVNVSRVSDPPVKNSQETYMMEMRASRMATQVLLKDFLMSLWSVVNLLPHQWWQVQAADSLLKLVSELKQTAIFSGFASLNDHVEQRIEEFDQEAEKTNRLLARIADDASANLKELESHYYSSAQRLTLDI” the “soluble on expression in E. coli” value was “soluble”. In the case of “MSERILPSTLRGVTNGQKEVTASVGERVPLLPRRFSARPQGNQEAQERTAVKCEQVRYAIQEVIGRGAFGEVSSAEVVGTRDLVAIKRVIHDGRLRQRELTLMRDHLGPNTQQGGVSSLDVGNGVGAHATSVTGSNGEEANGTTAIDGLESWNMPTIVPYHPCVVKLLDHFFASDPSGVQYLFMVMDYIPLDVRRLHHMFLRQREQQMPIILVKVIMFQLARALAFLHARGICHRDVKPNNILVDQETGVVKLCDFGSAKKMQAVGGEGPREKNVPYIFSRYYRAPELLLGSQYYHFHVDMWAFGCVLAELLCGKVLFKGSSSTMDQLVEIIKVLGKPSERELFALNPQSAGSALIRTWGDSHNASQLSPTPSGPLPSSNSANADYMQRRSAPRVKSLLWVEVLPPNTSQAALSLIEQLLRYTPEERLTSAEVLEHVFFDELFSDDARLPNGAPLPASMFQVTREEAEILPPWLLERMAAAEGVAKGRELNQSATAPENAI”, the “soluble on expression in E. coli” value is reported as “not soluble”. With “MSLTTALAPGAADALLFDLGRVVIDYDLRRTLKAWAVELGSDPHALMAKLAQNDTFHRYETGHVTDAEFFAAVRTALGLTLTDAQLREGWNAIFIGEMPGIAPLLDRAAKQLPLYALSNTNDSHIAHFSEHYAELLVHFRELFLSSRIGMRKPNGETYDFVVKAIGIAPQRIVFFDDLAENVEAARERGLYAVQVHSSDDVARTLDQLGLEGHHHHHH” the “soluble on expression in E. coli” value was “soluble”. In the case of “MCTQDEECSAPGGDKGKEKEEHTVVPRGKEEKEKKPGTKPSPISPAFKGTPKERPNCGKTKNETSGKKLRSNDVSPDVKDRLQLSEHGPSKTCIKDFQWLEDFITKMPCFHGFIGREDLMSVLKNVGDFLIRTSVQPNKHEVEKMKKNQADVKVLGNLSREKCAKKEKEKEEKLAGMGDVGRREFVISVYCKDKEKPATDKPQYTPIRNLVIKRDNGMVHVEPLRKFKTLTEFFGYYQKNSGICKETDFQLITPIPLSNWEFIHEDIALQQKKLGEGAFGEVRIGKMKLKSTKKTVEVAVKMLRNAEVVIREQVGELLHEARVMRMMDHKNVLRSYGIAVLKEPLYLMTEMCACGALREYLRENQETVTLAEKLFFVVGSSRGVQYLHSQKTIHRDLAVRNILLSEDRTPKISDFGLAKISERYEMKEQCKIPVRYLAPETLESFIFTTKTDVFSFGCVIWEIYENGNQPHDGKNAQTIRNLTKKNQFLKLTNSAPSELRKLIEERVFTSDPENRCSMTTIVQCAEKIEKPPVGMK”, the “soluble on expression in E. coli” value is reported as “not soluble”. With “MPQDSSQGRPRGDDVWVAEAKYDCNTRGRNSIMGNGALKYRTESKNFFNLIPEEVFHNTMKYLDLFLRNLRNIII” the “soluble on expression in E. coli” value was “not soluble”. For “MGSDKIHHHHHHMNRTAVGVDIAKSVFQVHYVDPETGEIVNKPIKRAKFLEFFANRARCLIGMEACGGAQHWARQLMKMGHEIRLMPAEFVKAFNIRNKNDAADARAIWLAVQQPGKPVAVKTEMQQAMLALHRMRRQLVTFRTMQINGLRGLPTEYGEVMGRGRAALDKAIPEVLRRVAERLPAVVIDTLREQWNGLTKLDEQVACIERRMREWKKQDKAVQAISEIPGVGLLTATAAVAMMGDAKAFSSGREFAAWAGLVPKQTGSGGKVNLHGISRRGDTYLRTLLIHGARSVLTHAKDPGPWVEQMKKRRPLNVVVVALANKIARTIWAGTFLRYSYNFP”, the “soluble on expression in E. coli” value was “not soluble”. In the case of “MKLPAPPVLLFLCGMFSLPMALADSGIQLDTPKGGWRTRAMDGEQYIQEVNYPASSVNTPQGQADTARIRGQIKGAPKANKEPGKLIVNGVSMPLKFDEQGSFDRPYAFPNGSNSVEVRSPDGQQRQRVQFLNTGGGVTPPKLRVLLSWDSDNTDLDLHLVTPDGAHIWYGDRVAPNGATLDVDVTTGYGPEIFSMPAPLKGQYLVYVNYYGGGYRSDDDEDGGQENAVQPLTTAQVTVITEEGTPDEKSETFVVPMRAPGELTLVRSFSYPLEHHHHHH”, the “soluble on expression in E. coli” value is reported as “not soluble”. In the case of “MKIVEGVSLHLIKNQQFKTNHLTFRFSGDFNNKTVARRSLVAQMLVTANAKYPKVQEFREKLASLYGASLSTKISTKGLVHIVDIDIVFVKNTFTLEQENIVEQIITFLEDMLFSPLISLEQYQTSIFDTEKKN”, the “soluble on expression in E. coli” value is reported as “not soluble”. In the case of “MSLGPPSIARTVTPNASIPKTPEDISILPVNDEPGYLQDSKTEQNYPELADAVKSQTSQTCSEEHKYVIMIDAGSTGSRVHIYKFDVCTSPPTLLDEKFDMLEPGLSSFDTDSVGAANSLDPLLKVAMNYVPIKARSCTPVAVKATAGLRLLGDAKSSKILSAVRDHLEKDYPFPVVEGDGVSIMGGDEEGVFAWITTNYLLGNIGANGPKLPTAAVFDLGGGSTQIVFEPTFPINEKMVDGEHKFDLKFGDENYTLYQFSHLGYGLKEGRNKVNSVLVENALKDGKILKGDNTKTHQLSSPCLPPKVNATNEKVTLESKETYTIDFIGPDEPSGAQCRFLTDEILNKDAQCQSPPCSFNGVHQPSLVRTFKESNDIYIFSYFYDRTRPLGMPLSFTLNELNDLARIVCKGEETWNSVFSGIAGSLDELESDSHFCLDLSFQVSLLHTGYDIPLQRELRTGKKIANKEIGWCLGASLPLLKADNWKCKIQSAEGHHHHHH”, the “soluble on expression in E. coli” value is reported as “soluble”. For “TTFENKKVLVLGLARSGEAAARLLAKLGAIVTVNDGKPFDENPTAQSLLEEGIKVVCGSHPLELLDEDFCYMIKNPGIPYNNPMVKKALEKQIPVL”, the “soluble on expression in E. coli” value was “not soluble”. With “MGSDKIHHHHHHMSDVVLNKGIVIEQLRYGHGNDVLVVDAWQLGTAEHWAIFATDSYSGSLLGRILSGDITPDQGIITGLPQRIGWVSLGQQQALLARELAKDELDYGSSVELLVLECCQGAQQLGPLLQQVGLEHLRLRGFRQLSTGETRRVMLARALAMQPQLLILDDPYAGLDCEHQESLSQLLDEVAKNCQLLLITSRQEELPECISHVALFNTEMLQSGQSIHKLSLPMSIKEWHSHPIMAQLHALSAQRSDELLALLVRQRHKVEDFDPLVEIKNGKVEYVSGLIFSGVNWRIEAGQHWQVRGPNGCGKSTLLGLILGDHPQCYSNDITLFGRPRGSGESIWEIKQRIGIVSSALHLQYRVSCSALDVLLSGFFDSIGLYHKPTKLQHDLAKEWLAILHMSELAHISFKQLEYGQQRLLLIGRALIKKPLLLILDEPYQGLDFINRTLVMRTLEMIAHHHLSQLLYVSHHREDALPSIKHFIDFVRQGDGYSVQVSHL” the “soluble on expression in E. coli” value was “not soluble”. In the case of “MGSDKIHHHHHHMSHLPHLIAKLENHAEWVKRLVLVGQKSWHTPLQKGGWSPAEVIHHFHRWDDFARNYRFIPFLAGRATFTAGAHAKFNEHSEREVRDGLGKEAIIVQCLKSRYALIETVEKLREEAWEQTLTIGDHDLSIHTYLQGVIEHDRHHREQIEQFFSLEQQGKLPMVNITERCGEELPMNLLLLADPEQAMIERYLSGGLGFLAEVEGTPVGVIVLKDKGHGLFEVMNIAVAEQEQGKGYGKLLLLHGIHVALKRGADRIEIGTGNSSIGQLALYQRCGFSITAVDKDFFTKHYHEPIVEQGIRCEHMIRLAQDLK”, the “soluble on expression in E. coli” value is reported as “not soluble”. With “MGSDKIHHHHHHMRTFRLVIACPDRVGIVAKVSNFLASHNGWITEASHHSDNLSGWFFMRHEIRADTLPFDLDGFREAFTPIAEEFSMDWRITDSAQKKRVVLMASRESHCLADLLHRWHSDELDCDIACVISNHQDLRSMVEWHDIPYYHVPVDPKDKEPAFAEVSRLVGHHQADVVVLARYMQILPPQLCREYAHQVINIHHSFLPSFVGAKPYHQASLRGVKLIGATCHYVTEELDAGPIIEQDVVRVSHRDSIENMVRFGRDVEKMVLARGLRAHLEDRVLVHDNKTVVFD” the “soluble on expression in E. coli” value was “not soluble”. For “MSKIEIFEAAGCCATSSVVVSDEAVKWNASAEWAKKHGVNIQRYSLAKNPQQFLNTPVIRAFLNTSGMESLPATLLDGQLVMAGKLPSREDIARWAG”, the “soluble on expression in E. coli” value was “soluble”. With “MQPNDITFFQRFQDDILAGRKTITIRDESESHFKTGDVLRVGRFEDDGYFCTIEVTATSTVTLDTLTEKHAEQENMTLTELKKVIADIYPGQTQFYVIEFKCL” the “soluble on expression in E. coli” value was “soluble”. For “MSEKKAVIGVVTISDRASKGIYEDISGKAIIDYLKDVIITPFEVEYRVIPDERDLIEKTLIELADEKGCSLILTTGGTGPAPRDVTPEATEAVCEKMLPGFGELMRQVSLKQVPTAILSRQTAGIRGSCLIVNLPGKPQSIKVCLDAVMPAIPYCIDLIGGAYIDTDPNKVKAFRPKK”, the “soluble on expression in E. coli” value was “soluble”. With “MGKNLLREKKRLIRQKILFLTGENESWMKNPEIVKEVQRLSKQLESDLIADKRPLPSLDPDKLTKEKYQHFLDLGYQVGDIKKALGLGTTTFQNWRKANGIENKINRKQKKEESKLMKFNIHTASLLLPGTFGAEGKECITISKSGLALSGPVVRRLNKPEWIQLYLDESRLALFVIPCKATDEGARSCVNPKSKKKAGYRKSWSGSILEKVAKASKMDIENHRYHVEPESVEGYPTALGFDLTKAVKN” the “soluble on expression in E. coli” value was “not soluble”. In the case of “MGTLSVNQNKLQKRLRRLAGEAVADFNMIEEGDKVMVCLSGGKDSYTLLDVLMHFQKVAPIRFDIVAVNMDQKQPGFPEHVLPAYLKELGVEYHIVEKDTHSVVKELIPEGKTTCSLCSRLRRGTLYTFADQIGATKMALGHHRDDIIETFFLNMFFNGALKAMPPKLRADDGRNVVIRPLAYCHEKDIQAYSDLKQFPIIPCNL”, the “soluble on expression in E. coli” value is reported as “not soluble”. With “MGSDKIHHHHHHMNADTPLQLLGGLTAAEFLRDYWQRKPLLVRQAIPDFESPLSADELAGLSLEESVESRIVLEHGKTPWEMRRGPFQEEDYQHLPEQDWTLLVQAVDQFVPEVAQLLEQFRFLPSWRIDDVMISYAAPGGGVGPHFDNYDVFLLQGHGRRRWKVGQMCSSDSPLREHADLRILADFEQSDEWVLEPGDMLYLPPRLAHYGIAEDECMTYSIGFRAPSAAEVLTHFTDFLGQFLSDEERYTDAGLQPVGDDPHQIQRDALERLQGLIQEHMSDERLLLTWFGQFMTEPRYPELVAGEEIPEEELFGALEDGALLVRNPSARLAWSEIDIGLVLFASGQSVLLPGQLKELLKLVCSADALHLENLGQWLADDDARKLLAELVKQGSLEFADE” the “soluble on expression in E. coli” value was “not soluble”. For “MAHHHHHHMHNSVPASNTCSPFREETVSKRGKRSRGTGGDDKITRGTCSQPFSVITLPPGKLLEWLVCSPCRVYDVNLPRSRNNDNNISSLQCAVLPNFFVEYGGRSYSCVAKVCKPQLRKVLLRALAAVRQEMGSVDDIPHDSLLVVAVSPINAFSSECIHDASRTAMPRAREGCKIVGLCVARELSAPHRMHCESNWSHEKSEASGVGAAVQEGLGDCWEEDATRVGGTNNVRKAFCGVQLVWVADCYRRHGVAKVLVDTARRHISYGFEVPVERVAFSEPTSLGKLFAKSYSGRPDFLI”, the “soluble on expression in E. coli” value was “soluble”. With “NVFMRKKDNTIDYRYFIEPNIMTSNIDDLLLEKPVAFQLEQFQKELIDSNVNPQLVQLVVDDATI” the “soluble on expression in E. coli” value was “not soluble”.
